# Residue numbers refer to the chain shown, from its start.
# What was measured:
# Assay in all cases: holdup assay
# Parameters in all cases: key: below the threshold = too weak to quantify, mostly under pKd 3.1 to 4
# Conditions in all cases: plain residues with an end cap or a label only (N-terminal biotin on a linker: ado-ado)
# MPDZ_10, O75970 = target: T1, MPDZ_10, O75970
# T1 sequence (O75970 1624-1722, limits assumed, looked up): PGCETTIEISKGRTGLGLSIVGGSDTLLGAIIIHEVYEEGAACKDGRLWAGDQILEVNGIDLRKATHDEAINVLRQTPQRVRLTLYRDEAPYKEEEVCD
# GRIP2_3, Q9C0E4 = target: GRIP2_3, Q9C0E4
# Sequence of GRIP2_3, Q9C0E4 (Q9C0E4 238-339): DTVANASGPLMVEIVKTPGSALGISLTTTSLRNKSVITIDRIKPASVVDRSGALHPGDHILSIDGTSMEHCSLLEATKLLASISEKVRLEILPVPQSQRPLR
# GRIP2_5, Q9C0E4 = target: GRIP2_5, Q9C0E4
# Sequence of GRIP2_5, Q9C0E4 (Q9C0E4 544-642): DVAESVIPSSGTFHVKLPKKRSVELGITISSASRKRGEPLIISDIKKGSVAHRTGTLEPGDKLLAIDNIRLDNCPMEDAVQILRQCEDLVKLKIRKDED
# NHERF2_2, Q15599 = target: NHERF2_2, Q15599
# Sequence of NHERF2_2, Q15599 (Q15599 142-238): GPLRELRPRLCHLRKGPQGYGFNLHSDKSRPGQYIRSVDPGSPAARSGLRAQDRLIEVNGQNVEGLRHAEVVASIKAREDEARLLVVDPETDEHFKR
# MPP2, Q14168 = target: T2, MPP2, Q14168
# T2 sequence (Q14168 180-250, limits assumed, looked up): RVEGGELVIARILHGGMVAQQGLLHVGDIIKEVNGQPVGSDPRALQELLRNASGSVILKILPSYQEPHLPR
# DLG1_1, Q12959 = target: DLG1_1, Q12959
# IL16_1, Q14005 = target: IL16_1, Q14005
# Sequence of IL16_1, Q14005 (Q14005 210-306): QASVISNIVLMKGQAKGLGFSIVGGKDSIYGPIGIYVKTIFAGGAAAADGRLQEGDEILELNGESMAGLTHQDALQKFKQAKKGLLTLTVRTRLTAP
# SNTG2, Q9NY99 = target: T3, SNTG2, Q9NY99
# T3 sequence (Q9NY99 68-166, limits assumed, looked up): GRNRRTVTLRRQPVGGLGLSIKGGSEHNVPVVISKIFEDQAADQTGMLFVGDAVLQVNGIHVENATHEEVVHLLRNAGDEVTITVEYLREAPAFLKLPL
# SCRIB_2, Q14160 = target: SCRIB_2, Q14160
# Sequence of SCRIB_2, Q14160 (Q14160 857-960): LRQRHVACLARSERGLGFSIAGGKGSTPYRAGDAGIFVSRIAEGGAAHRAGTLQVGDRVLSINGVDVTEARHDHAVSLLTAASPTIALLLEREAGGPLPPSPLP
# HTRA4, P83105 = target: T4, HTRA4, P83105
# T4 sequence (P83105 378-476, limits assumed, looked up): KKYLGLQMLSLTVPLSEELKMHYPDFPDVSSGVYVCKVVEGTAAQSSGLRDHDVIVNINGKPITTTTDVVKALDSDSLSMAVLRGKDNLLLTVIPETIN
# MPP7, Q5T2T1 = target: T5, MPP7, Q5T2T1
# T5 sequence (Q5T2T1 134-230, limits assumed, looked up): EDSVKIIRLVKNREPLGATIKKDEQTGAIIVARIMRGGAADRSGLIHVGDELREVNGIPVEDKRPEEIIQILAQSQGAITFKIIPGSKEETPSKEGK
# GRIP2_4, Q9C0E4 = target: GRIP2_4, Q9C0E4
# Sequence of GRIP2_4, Q9C0E4 (Q9C0E4 446-548): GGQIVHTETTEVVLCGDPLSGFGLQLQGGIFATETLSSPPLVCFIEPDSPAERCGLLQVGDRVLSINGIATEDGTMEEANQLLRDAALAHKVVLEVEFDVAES
# PCLO, Q9Y6V0 = target: T6, PCLO, Q9Y6V0
# T6 sequence (Q9Y6V0 4491-4600, limits assumed, looked up): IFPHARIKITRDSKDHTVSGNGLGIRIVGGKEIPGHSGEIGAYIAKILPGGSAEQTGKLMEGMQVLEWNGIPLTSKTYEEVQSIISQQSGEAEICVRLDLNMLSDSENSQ
# DLG1_3, Q12959 = target: DLG1_3, Q12959
# MPDZ_5, O75970 = target: T7, MPDZ_5, O75970
# T7 sequence (O75970 695-796, limits assumed, looked up): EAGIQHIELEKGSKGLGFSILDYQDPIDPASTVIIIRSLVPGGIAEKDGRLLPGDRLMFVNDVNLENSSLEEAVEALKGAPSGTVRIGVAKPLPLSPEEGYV
# APBA2_2, Q99767 = target: T8, APBA2_2, Q99767
# T8 sequence (Q99767 654-744, limits assumed, looked up): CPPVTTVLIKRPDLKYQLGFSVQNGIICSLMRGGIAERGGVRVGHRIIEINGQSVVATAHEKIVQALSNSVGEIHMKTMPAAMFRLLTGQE
# MAGI2_3, Q86UL8 = target: MAGI2_3, Q86UL8
# Sequence of MAGI2_3, Q86UL8 (Q86UL8 600-682): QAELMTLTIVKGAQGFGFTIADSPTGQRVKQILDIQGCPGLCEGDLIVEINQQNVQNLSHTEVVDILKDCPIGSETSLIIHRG
# GRIP1_7, Q9Y3R0 = target: T9, GRIP1_7, Q9Y3R0
# T9 sequence (Q9Y3R0 999-1096, limits assumed, looked up): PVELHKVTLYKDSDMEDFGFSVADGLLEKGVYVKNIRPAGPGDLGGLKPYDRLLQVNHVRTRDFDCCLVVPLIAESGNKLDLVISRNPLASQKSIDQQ
# LNX1_1, Q8TBB1 = target: LNX1_1, Q8TBB1
# Sequence of LNX1_1, Q8TBB1 (Q8TBB1 261-371): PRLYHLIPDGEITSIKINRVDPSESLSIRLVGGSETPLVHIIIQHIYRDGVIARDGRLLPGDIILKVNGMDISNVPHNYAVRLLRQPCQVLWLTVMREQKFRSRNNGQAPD
# MAGI3_2, Q5TCQ9 = target: MAGI3_2, Q5TCQ9
# Sequence of MAGI3_2, Q5TCQ9 (Q5TCQ9 398-503): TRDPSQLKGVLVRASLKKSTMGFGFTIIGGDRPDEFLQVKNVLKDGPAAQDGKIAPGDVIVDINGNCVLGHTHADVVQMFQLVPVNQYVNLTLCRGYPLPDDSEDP
# MAGI2_6, Q86UL8 = target: MAGI2_6, Q86UL8
# Sequence of MAGI2_6, Q86UL8 (Q86UL8 1141-1229): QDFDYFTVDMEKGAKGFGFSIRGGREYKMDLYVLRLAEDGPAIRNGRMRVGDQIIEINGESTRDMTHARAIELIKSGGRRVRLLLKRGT
# ARHGAP21, Q5T5U3 = target: T10, ARHGAP21, Q5T5U3
# T10 sequence (Q5T5U3 45-169, limits assumed, looked up): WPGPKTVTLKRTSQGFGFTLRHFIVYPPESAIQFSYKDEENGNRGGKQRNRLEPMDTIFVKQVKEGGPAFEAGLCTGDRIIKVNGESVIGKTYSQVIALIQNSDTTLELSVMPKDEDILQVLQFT
# APBA1_2, Q02410 = target: T11, APBA1_2, Q02410
# T11 sequence (Q02410 742-832, limits assumed, looked up): T8 sequence (Q99767 654-744, limits assumed, looked up) with K10R, K15R, A59P, Q65H, A66I, S70A, F84Y, G89A
# NHERF4_2, Q86UT5 = target: NHERF4_2, Q86UT5
# Sequence of NHERF4_2, Q86UT5 (Q86UT5 220-308): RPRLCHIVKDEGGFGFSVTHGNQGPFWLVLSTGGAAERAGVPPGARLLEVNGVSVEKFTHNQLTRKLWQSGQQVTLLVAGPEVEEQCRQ
# LAP2, Q96RT1 = target: LAP2, Q96RT1
# Sequence of LAP2, Q96RT1 (Q96RT1 other isoform, or with tags, fused parts or gaps): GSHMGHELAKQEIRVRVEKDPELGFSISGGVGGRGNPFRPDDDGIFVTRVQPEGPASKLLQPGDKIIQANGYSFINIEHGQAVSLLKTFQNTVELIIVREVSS
# MPP6, Q9NZW5 = target: T12, MPP6, Q9NZW5
# T12 sequence (Q9NZW5 125-219, limits assumed, looked up): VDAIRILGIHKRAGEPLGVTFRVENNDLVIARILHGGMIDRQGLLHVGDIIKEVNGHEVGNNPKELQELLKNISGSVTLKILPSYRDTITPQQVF
Binder,"pKd (MPDZ_10, O75970)","pKd (GRIP2_3, Q9C0E4)","pKd (GRIP2_5, Q9C0E4)","pKd (NHERF2_2, Q15599)","pKd (MPP2, Q14168)","pKd (DLG1_1, Q12959)","pKd (IL16_1, Q14005)","pKd (SNTG2, Q9NY99)","pKd (SCRIB_2, Q14160)","pKd (HTRA4, P83105)","pKd (MPP7, Q5T2T1)","pKd (GRIP2_4, Q9C0E4)","pKd (PCLO, Q9Y6V0)","pKd (DLG1_3, Q12959)","pKd (MPDZ_5, O75970)","pKd (APBA2_2, Q99767)","pKd (MAGI2_3, Q86UL8)","pKd (GRIP1_7, Q9Y3R0)","pKd (LNX1_1, Q8TBB1)","pKd (MAGI3_2, Q5TCQ9)",other results
"DFRHKSSFVI [JAM3, Q9BX67]",below the threshold,below the threshold,below the threshold,below the threshold,3.67,below the threshold,below the threshold,below the threshold,below the threshold,below the threshold,3.79,below the threshold,below the threshold,below the threshold,below the threshold,below the threshold,below the threshold,below the threshold,below the threshold,below the threshold,"pKd (MAGI2_6, Q86UL8): below the threshold; pKd (ARHGAP21, Q5T5U3): below the threshold; pKd (APBA1_2, Q02410): below the threshold; pKd (NHERF4_2, Q86UT5): below the threshold; pKd (LAP2, Q96RT1): below the threshold; pKd (MPP6, Q9NZW5): 3.62"
"YPKQMPLSQV [FZD8, Q9H461]",3.7,below the threshold,below the threshold,below the threshold,below the threshold,below the threshold,below the threshold,below the threshold,below the threshold,3.94,below the threshold,below the threshold,below the threshold,3.64,below the threshold,below the threshold,below the threshold,below the threshold,3.74,4.44,"pKd (MAGI2_6, Q86UL8): below the threshold; pKd (ARHGAP21, Q5T5U3): 3.94; pKd (APBA1_2, Q02410): 3.81; pKd (NHERF4_2, Q86UT5): below the threshold; pKd (LAP2, Q96RT1): below the threshold; pKd (MPP6, Q9NZW5): below the threshold"
"LGHTPFVDEL [UQCRC2, P22695]",below the threshold,below the threshold,below the threshold,4.34,below the threshold,below the threshold,3.49,below the threshold,below the threshold,3.98,below the threshold,below the threshold,below the threshold,below the threshold,below the threshold,below the threshold,below the threshold,below the threshold,below the threshold,below the threshold,"pKd (MAGI2_6, Q86UL8): below the threshold; pKd (ARHGAP21, Q5T5U3): 3.91; pKd (APBA1_2, Q02410): 3.75; pKd (NHERF4_2, Q86UT5): below the threshold; pKd (LAP2, Q96RT1): below the threshold; pKd (MPP6, Q9NZW5): below the threshold"
"QYPGSPDSWV [PKP4, Q99569]",3.7,below the threshold,3.58,below the threshold,below the threshold,3.96,4.13,3.62,4.82,3.48,below the threshold,below the threshold,below the threshold,below the threshold,3.58,below the threshold,below the threshold,3.7,3.98,below the threshold,"pKd (MAGI2_6, Q86UL8): 5.4; pKd (ARHGAP21, Q5T5U3): 3.56; pKd (APBA1_2, Q02410): 4.36; pKd (NHERF4_2, Q86UT5): below the threshold; pKd (LAP2, Q96RT1): 5.5; pKd (MPP6, Q9NZW5): below the threshold"

# From PMC9482650, “Quantitative fragmentomics allow affinity mapping of interactomes” (Nature Communications, 2022)
